We go through one protein from article PMC7381529 (Protein & Cell, 2020).

A word on the stoichiometry N: it is the number of molecules, sites or subunits per partner or assembly.

This series concerns the molecule itself. The series is described as follows: crystal structure.

Several values for one entry are separate records, joined by “and”; a condition that tells them apart may be missing. Equal entries are not always repeated.

B1: African swine fever virus p15 (mature protein p15, wild type) (natural protein)
chain: MPSNMKQFCKISVWLQQHDPDLLEIINNLCMLGNLSAAKYKHGVTFIYPKQAKIRDEIKKHAYSNDPSQAIKTLESLILPFYIPTPAEFTGEIGSYTGVKLEVEKTEANKVILKNGEAVLVPAADFKPFPDRRLAVWIMESGSMPLEGPPYKRKKEGG
Turning to B1, the “stoichiometry N” value is 2 and 6.
